Experimental data published in publication PMC12638876.
Blank lines part the entries; values can stand above or below the substance they belong to.

Legend:
[1] = target: CXE15 C14S fused to split YFP (Arabidopsis thaliana) (UniProt Q9FG13); assay: split reporter
[2] = target: CXE15 C14S mutant (Arabidopsis thaliana) (UniProt Q9FG13); assay: MST
[3] = target: full-length Arabidopsis thaliana CXE15 (Arabidopsis thaliana) (UniProt Q9FG13); assay: MST

- fold reduction of BiFC fluorescence against wild-type CXE15 [1]: > 2 fold
Substance: CXE15 C14S fused to split YFP (from UniProt Q9FG13 1-329) (enzyme)

- Kd [2]: 4.5 µM
Substance: CXE15 C14S mutant (from UniProt Q9FG13 1-329) (enzyme)

- Kd [3]: 1.62 µM
Substance: full-length Arabidopsis thaliana CXE15 (from UniProt Q9FG13 1-329) (enzyme)
